Measured values published in the supplement of paper PMC5998384.

What was measured:
HeLa Kyoto [1] = assay: melting temperature (median over replicates), in situ; higher = more thermally stable
HeLa Kyoto [2] = assay: solubility in G1/S (NP-40 vs SDS abundance) (log2 ratio); higher = more soluble; settings: cell cycle stage: G1/S
HeLa Kyoto [3] = assay: thermal stability score vs G1/S (z-score of summed log2 fold changes over temperatures); higher = more thermally stable than in G1/S
HeLa Kyoto [4] = assay: solubility change mitosis vs G1/S (difference of NP-40 vs SDS log2 ratios) (log2 ratio difference); higher = more soluble in mitosis
[5] = cell cycle stage: early G1 (4.5 h after nocodazole release)
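Wherever melting temperature (median over replicates), in situ is given: HeLa Kyoto cells synchronized by double thymidine or nocodazole block, proteins quantified by TMT10plex mass spectrometry, three independent biological replicates.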
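Wherever solubility change mitosis vs G1/S (difference of NP-40 vs SDS log2 ratios) is given: synchronized HeLa Kyoto cells (double thymidine block for G1/S, nocodazole release for mitosis), protein amounts in NP-40 versus SDS lysates quantified by mass spectrometry, three biological replicates.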
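Wherever solubility in G1/S (NP-40 vs SDS abundance) is given: HeLa Kyoto cells arrested at G1/S by double thymidine block, proteins quantified by TMT10plex mass spectrometry in mild NP-40 versus SDS extracts, three biological replicates.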
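Wherever thermal stability score vs G1/S (z-score of summed log2 fold changes over temperatures) is given: synchronized HeLa Kyoto cells, proteins quantified by TMT10plex mass spectrometry, three biological replicates, mitosis taken 0.5 h after nocodazole release, G1/S directly after double thymidine block.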

Sequence | melting temperature (HeLa Kyoto [1]; cell cycle stage: G1/S) | solubility in G1/S (log2) (HeLa Kyoto [2]) | thermal stability score (HeLa Kyoto [3]; [5]) | thermal stability score (HeLa Kyoto [3]; cell cycle stage: mitosis) | solubility change mitosis (log2) (HeLa Kyoto [4]) | melting temperature (HeLa Kyoto [1]; cell cycle stage: mitosis)
MENSSAASASSEAGSSRSQEIEELERFIDSYVLEYQVQGLLADKTEGDGESERTQSHISQWTADCSEPLDSSCSFSRGRAPPQQNGSKDNSLDMLGTDIWAANTFDSFSGATWDLQPEKLDFTQFHRKVRHTPKQPLPHIDREGCGKGKLEDGDGINLNDIEKVLPAWQGYHPMPHEVEIAHTKKLFRRRRNDRRRQQRPPGGNKPQQHGDHQPGSAKHNRDHQKSYQGGSAPHPSGRPTHHGYSQNRRWHHGNMKHPPGDKGEAGAHRNAKETMTIENPKLEDTAGDTGHSSLEAPRSPDTLAPVASERLPPQQSGGPEVETKRKDSILPERIGERPKITLLQSSKDRLRRRLKEKDEVAVETTTPQQNKMDKLIEILNSMRNNSSDVDTKLTTFMEEAQNSTNSEEMLGEIVRTIYQKAVSDRSFAFTAAKLCDKMALFMVEGTKFRSLLLNMLQKDFTVREELQQQDVERWLGFITFLCEVFGTMRSSTGEPFRVLVCPIYTCLRELLQSQDVKEDAVLCCSMELQSTGRLLEEQLPEMMTELLASARDKMLCPSESMLTRSLLLEVIELHANSWNPLTPPITQYYNRTIQKLTA [CTIF] | 52.1 °C | 0.0528 | -0.292 | 0.109 | 0.157 | –
MEPAMEPETLEARINRATNPLNKELDWASINGFCEQLNEDFEGPPLATRLLAHKIQSPQEWEAIQALTVLETCMKSCGKRFHDEVGKFRFLNELIKVVSPKYLGSRTSEKVKNKILELLYSWTVGLPEEVKIAEAYQMLKKQGIVKSDPKLPDDTTFPLPPPRPKNVIFEDEEKSKMLARLLKSSHPEDLRAANKLIKEMVQEDQKRMEKISKRVNAIEEVNNNVKLLTEMVMSHSQGGAAAGSSEDLMKELYQRCERMRPTLFRLASDTEDNDEALAEILQANDNLTQVINLYKQLVRGEEVNGDATAGSIPGSTSALLDLSGLDLPPAGTTYPAMPTRPGEQASPEQPSASVSLLDDELMSLGLSDPTPPSGPSLDGTGWNSFQSSDATEPPAPALAQAPSMESRPPAQTSLPASSGLDDLDLLGKTLLQQSLPPESQQVRWEKQQPTPRLTLRDLQNKSSSCSSPSSSATSLLHTVSPEPPRPPQQPVPTELSLASITVPLESIKPSNILPVTVYDQHGFRILFHFARDPLPGRSDVLVVVVSMLSTAPQPIRNIVFQSAVPKVMKVKLQPPSGTELPAFNPIVHPSAITQVLLLANPQKEKVRLRYKLTFTMGDQTYNEMGDVDQFPPPETWGSL [GGA1] | 51.6 °C | 0.556 | -0.271 | -0.0298 | -0.28 | 51.6 °C
MEPAPARSPRPQQDPARPQEPTMPPPETPSEGRQPSPSPSPTERAPASEEEFQFLRCQQCQAEAKCPKLLPCLHTLCSGCLEASGMQCPICQAPWPLGADTPALDNVFFESLQRRLSVYRQIVDAQAVCTRCKESADFWCFECEQLLCAKCFEAHQWFLKHEARPLAELRNQSVREFLDGTRKTNNIFCSNPNHRTPTLTSIYCRGCSKPLCCSCALLDSSHSELKCDISAEIQQRQEELDAMTQALQEQDSAFGAVHAQMHAAVGQLGRARAETEELIRERVRQVVAHVRAQERELLEAVDARYQRDYEEMASRLGRLDAVLQRIRTGSALVQRMKCYASDQEVLDMHGFLRQALCRLRQEEPQSLQAAVRTDGFDEFKVRLQDLSSCITQGKDAAVSKKASPEAASTPRDPIDVDLPEEAERVKAQVQALGLAEAQPMAVVQSVPGAHPVPVYAFSIKGPSYGEDVSNTTTAQKRKCSQTQCPRKVIKMESEEGKEARLARSSPEQPRPSTSKAVSPPHLDGPPSPRSPVIGSEVFLPNSNHVASGAGEAEERVVVISSSEDSDAENSSSRELDDSSSESSDLQLEGPSTLRVLDENLADPQAEDRPLVFFDLKIDNETQKISQLAAVNRESKFRVVIQPEAFFSIYSKAVSLEVGLQHFLSFLSSMRRPILACYKLWGPGLPNFFRALEDINRLWEFQEAISGFLAALPLIRERVPGASSFKLKNLAQTYLARNMSERSAMAAVLAMRDLCRLLEVSPGPQLAQHVYPFSSLQCFASLQPLVQAAVLPRAEARLLALHNVSFMELLSAHRRDRQGGLKKYSRYLSLQTTTLPPAQPAFNLQALGTYFEGLLEGPALARAEGVSTPLAGRGLAERASQQS [PML] | 50.3 °C | -0.134 | -0.223 | 2.23 | 0.33 | 50.5 °C
MEPEAPRRRHTHQRGYLLTRNPHLNKDLAFTLEERQQLNIHGLLPPSFNSQEIQVLRVVKNFEHLNSDFDRYLLLMDLQDRNEKLFYRVLTSDIEKFMPIVYTPTVGLACQQYSLVFRKPRGLFITIHDRGHIASVLNAWPEDVIKAIVVTDGERILGLGDLGCNGMGIPVGKLALYTACGGMNPQECLPVILDVGTENEELLKDPLYIGLRQRRVRGSEYDDFLDEFMEAVSSKYGMNCLIQFEDFANVNAFRLLNKYRNQYCTFNDDIQGTASVAVAGLLAALRITKNKLSDQTILFQGAGEAALGIAHLIVMALEKEGLPKEKAIKKIWLVDSKGLIVKGRASLTQEKEKFAHEHEEMKNLEAIVQEIKPTALIGVAAIGGAFSEQILKDMAAFNERPIIFALSNPTSKAECSAEQCYKITKGRAIFASGSPFDPVTLPNGQTLYPGQGNNSYVFPGVALGVVACGLRQITDNIFLTTAEVIAQQVSDKHLEEGRLYPPLNTIRDVSLKIAEKIVKDAYQEKTATVYPEPQNKEAFVRSQMYSTDYDQILPDCYSWPEEVQKIQTKVDQ [ME1] | 56.5 °C | 0.144 | -1.35 | -1.4 | -0.171 | 56.7 °C
MEPEPEPAAVEVPAGRVLSARELFAARSRSQKLPQRSHGPKDFLPDGSAAQAERLRRCREELWQLLAEQRVERLGSLVAAEWRPEEGFVELKSPAGKFWQTMGFSEQGRQRLHPEEALYLLECGSIHLFHQDLPLSIQEAYQLLLTDHTVTFLQYQVFSHLKRLGYVVRRFQPSSVLSPYERQLNLDASVQHLEDGDGKRKRSSSSPRSINKKAKALDNSLQPKSLAASSPPPCSQPSQCPEEKPQESSPMKGPGGPFQLLGSLGPSPGPAREGVGCSWESGRAENGVTGAGKRRWNFEQISFPNMASDSRHTLLRAPAPELLPANVAGRETDAESWCQKLNQRKEKLSRREREHHAEAAQFQEDVNADPEVQRCSSWREYKELLQRRQVQRSQRRAPHLWGQPVTPLLSPGQASSPAVVLQHISVLQTTHLPDGGARLLEKSGGLEIIFDVYQADAVATFRKNNPGKPYARMCISGFDEPVPDLCSLKRLSYQSGDVPLIFALVDHGDISFYSFRDFTLPQDVGH [TSEN54] | 48.8 °C | 0.322 | 0.317 | 0.466 | -0.153 | 50 °C
MEPLSHRGLPRLSWIDTLYSNFSYGTDEYDGEGNEEQKGPPEGSETMPYIDESPTMSPQLSARSQGGGDGVSPTPPEGLAPGVEAGKGLEMRKLVLSGFLASEEIYINQLEALLLPMKPLKATATTSQPVLTIQQIETIFYKIQDIYEIHKEFYDNLCPKVQQWDSQVTMGHLFQKLASQLGVYKAFVDNYKVALETAEKCSQSNNQFQKISEELKVKGPKDSKDSHTSVTMEALLYKPIDRVTRSTLVLHDLLKHTPVDHPDYPLLQDALRISQNFLSSINEDIDPRRTAVTTPKGETRQLVKDGFLVEVSESSRKLRHVFLFTDVLLCAKLKKTSAGKHQQYDCKWYIPLADLVFPSPEESEASPQVHPFPDHELEDMKMKISALKSEIQKEKANKGQSRAIERLKKKMFENEFLLLLNSPTIPFRIHNRNGKSYLFLLSSDYERSEWREAIQKLQKKDLQAFVLSSVELQVLTGSCFKLRTVHNIPVTSNKDDDESPGLYGFLHVIVHSAKGFKQSANLYCTLEVDSFGYFVSKAKTRVFRDTAEPKWDEEFEIELEGSQSLRILCYEKCYDKTKVNKDNNEIVDKIMGKGQIQLDPQTVETKNWHTDVIEMNGIKVEFSMKFTSRDMSLKRTPSKKQTGVFGVKISVVTKRERSKVPYIVRQCVEEVEKRGIEEVGIYRISGVATDIQALKAVFDANNKDILLMLSDMDINAIAGTLKLYFRELPEPLLTDRLYPAFMEGIALSDPAAKENCMMHLLRSLPDPNLITFLFLLEHLKRVAEKEPINKMSLHNLATVFGPTLLRPSEVESKAHLTSAADIWSHDVMAQVQVLLYYLQHPPISFAELKRNTLYFSTDV [ABR] | 48.8 °C | -0.0712 | 0.864 | 1.73 | -0.111 | 49.1 °C
MEPRPTAPSSGAPGLAGVGETPSAAALAAARVELPGTAVPSVPEDAAPASRDGGGVRDEGPAAAGDGLGRPLGPTPSQSRFQVDLVSENAGRAAAAAAAAAAAAAAAGAGAGAKQTPADGEASGESEPAKGSEEAKGRFRVNFVDPAASSSAEDSLSDAAGVGVDGPNVSFQNGGDTVLSEGSSLHSGGGGGSGHHQHYYYDTHTNTYYLRTFGHNTMDAVPRIDHYRHTAAQLGEKLLRPSLAELHDELEKEPFEDGFANGEESTPTRDAVVTYTAESKGVVKFGWIKGVLVRCMLNIWGVMLFIRLSWIVGQAGIGLSVLVIMMATVVTTITGLSTSAIATNGFVRGGGAYYLISRSLGPEFGGAIGLIFAFANAVAVAMYVVGFAETVVELLKEHSILMIDEINDIRIIGAITVVILLGISVAGMEWEAKAQIVLLVILLLAIGDFVIGTFIPLESKKPKGFFGYKSEIFNENFGPDFREEETFFSVFAIFFPAATGILAGANISGDLADPQSAIPKGTLLAILITTLVYVGIAVSVGSCVVRDATGNVNDTIVTELTNCTSAACKLNFDFSSCESSPCSYGLMNNFQVMSMVSGFTPLISAGIFSATLSSALASLVSAPKIFQALCKDNIYPAFQMFAKGYGKNNEPLRGYILTFLIALGFILIAELNVIAPIISNFFLASYALINFSVFHASLAKSPGWRPAFKYYNMWISLLGAILCCIVMFVINWWAALLTYVIVLGLYIYVTYKKPDVNWGSSTQALTYLNALQHSIRLSGVEDHVKNFRPQCLVMTGAPNSRPALLHLVHDFTKNVGLMICGHVHMGPRRQAMKEMSIDQAKYQRWLIKNKMKAFYAPVHADDLREGAQYLMQAAGLGRMKPNTLVLGFKKDWLQADMRDVDMYINLFHDAFDIQYGVVVIRLKEGLDISHLQGQEELLSSQEKSPGTKDVVVSVEYSKKSDLDTSKPLSEKPITHKVEEEDGKTATQPLLKKESKGPIVPLNVADQKLLEASTQFQKKQGKNTIDVWWLFDDGGLTLLIPYLLTTKKKWKDCKIRVFIGGKINRIDHDRRAMATLLSKFRIDFSDIMVLGDINTKPKKENIIAFEEIIEPYRLHEDDKEQDIADKMKEDEPWRITDNELELYKTKTYRQIRLNELLKEHSSTANIIVMSLPVARKGAVSSALYMAWLEALSKDLPPILLVRGNHQSVLTFYS [SLC12A2] | 53.4 °C | -0.0146 | 1.53 | 1.39 | -0.137 | 53.3 °C
MERAVQGTDGGGGSNSSSRSSSRATSAGSSPSCSLAGRGVSSRSAAAGLGGGGSRSSPGSVAASPSGGGGRRREPALEGVLSKYTNLLQGWQNRYFVLDFEAGILQYFVNEQSKHQKPRGVLSLSGAIVSLSDEAPHMLVVYSANGEMFKLRAADAKEKQFWVTQLRACAKYHMEMNSKSAPSSRSRSLTLLPHGTPNSASPCSQRHLSVGAPGVVTITHHKSPAAARRAKSQYSGQLHEVREMMNQVEGQQKNLVHAIESLPGSGPLTALDQDLLLLKATSAATLSCLGECLNLLQQSVHQAGQPSQKPGASENILGWHGSKSHSTEQLKNGTLGSLPSASANITWAILPNSAEDEQTSQPEPEPNSGSELVLSEDEKSDNEDKEETELGVMEDQRSIILHLISQLKLGMDLTKVVLPTFILEKRSLLEMYADFMAHPDLLLAITAGATPEERVICFVEYYLTAFHEGRKGALAKKPYNPIIGETFHCSWEVPKDRVKPKRTASRSPASCHEHPMADDPSKSYKLRFVAEQVSHHPPISCFYCECEEKRLCVNTHVWTKSKFMGMSVGVSMIGEGVLRLLEHGEEYVFTLPSAYARSILTIPWVELGGKVSINCAKTGYSATVIFHTKPFYGGKVHRVTAEVKHNPTNTIVCKAHGEWNGTLEFTYNNGETKVIDTTTLPVYPKKIRPLEKQGPMESRNLWREVTRYLRLGDIDAATEQKRHLEEKQRVEERKRENLRTPWKPKYFIQEGDGWVYFNPLWKAH [OSBPL10] | 48.6 °C | 0.0171 | -0.0143 | -0.526 | 0.13 | 51 °C
